Experimental data taken from patent US12686846B2, “Plant sweet and yeast MSF transporter capable of transporting different sugars simultaneously” (THE BOARD OF TRUSTEES OF THE UNIVERSITY OF ILLINOIS, priority 2020, dated 2026).
“And” between values parts separate entries of the source, which are not always exact repeats. Equal entries are not always repeated. “Also recorded” adds a separate entry of the source.

How the values were obtained:
[1] = system: transporter-overexpressing SR8D8; assay: Inhibition of xylose uptake by glucose; format: cell-based, S. cerevisiae; details: 25 mM or 100 mM glucose
Method: SR8D8 containing the respective plasmid was grown on selective YPE medium to an OD600 of 1-1.5, harvested by centrifugation, and washed twice in ice-cold uptake buffer (100 mM potassium phosphate, pH 6.5). C14 labeled sugar uptake assay was done according to Boles and Oreb. Radioactivity was analyzed in a Beckman-Coulter LS6500 multi-purpose liquid scintillation counter (Beckman-Coulter, CA, USA).
Sugar solutions contained 0.135-0.608 μCi of D-[U-^14C]-glucose (290-300 mCi/mmol) or D-[1-^14C]-xylose (55 mCi/mmol) (PerkinElmer, MA, USA). Calculation of Km (Michaelis constant), Vmax (maximal initial uptake velocity), and K (inhibitor constant for competitive inhibition) was done by nonlinear regression analysis and global curve fitting in Prism 7 (GraphPad Software) with values of three independent measurements.

[2] = system: SR8D8 expressing transporter; assay: Mixed sugar fermentation at industrially relevant sugar concentrations; format: cell-based, S. cerevisiae; details: 7% glucose and 4% xylose (70 g/L, 40 g/L)
Method: (§1) For flask fermentation, a single colony was inoculated to 5 or 25 mL YPE ([…], 1% w/v yeast extract, 2% peptone, 5% ethanol) supplemented with 200 μg/ml of geneticin to obtain seed cultures. […] Flask fermentations were maintained at 30° C. and 250 rpm.

[3] = system: SR8D8 expressing transporter; assay: Transporter screening for growth on glucose or xylose (Bioscreen C); format: cell-based, S. cerevisiae; details: glucose or xylose containing medium, OD600
Method: ScGal2 expressing SR8D8 were used as a positive control (FIG. 3). Most of the AtSWEETs and putative oleaginous transporters expressing strains were not able to grow on glucose or xylose.
(§2) A xylose fermenting S. cerevisiae yeast (SR8) with HXT1-7Δ, GAL2Δ deletions was used for transporter screening and characterization (SR8D8). SR8D8 was grown in YPE medium/plate (10 g/L yeast extract, 20 g/L peptone, and 5 g/L ethanol). […] SRD8 strains transformed with plasmid containing KanMX marker conferring resistance to G418 (geneticin) were propagated on YPE supplemented with 200 μg/ml of geneticin. For growth and flask fermentation experiments all media was supplemented with 200 μg/ml of geneticin for plasmid maintenance. Biomass was calculated from the OD600 measured using a Biomate 5 UV-visible spectrophotometer (Fisher, NY, USA). All growth rates were measured using a Bioscreen C plate reader system (Growth Curves USA, Piscataway, NJ, USA). A 2 μL inoculum of fully grown culture was added into 200 μL YP (+200 μg/ml Geneticin) with varying concentrations of different sugars. A wide band filter (420-580 nm) was used to measure optical density. Bioscreen C values represent mean value from three biological replicates. In all cases, the Bioscreen C was set to maintain a temperature of 30° C. and high aeration through high continuous shaking.

[4] = substrate: OC[C@H]1OC(O)[C@H](O)[C@@H](O)[C@@H]1O; assay: cells, lysate or membranes; details: other: initial glucose uptake (5 s), 30° C., pH 6.5, 0.2 to 100 mM glucose, ± SEM in Table 1
[5] = system: SR8D8 expressing transporter; assay: Glucose and xylose mixed sugar flask fermentation (20 g/L each); format: cell-based, S. cerevisiae; details: 20 g/L of glucose and xylose, YP medium
Method: as §1, §2

[6] = system: SR8D8 expressing transporter; assay: Sole glucose or xylose flask fermentation; format: cell-based, S. cerevisiae; details: glucose or xylose conditions, YP medium
Method: as §1, §2

B1: Arabidopsis thaliana AtSWEET7 transporter, wild type (Table 2: SEQ ID NO: 3; FIG. 12: SEQ ID NO:2) (Arabidopsis thaliana) (protein)
chain: MVFAHLNLLRKIVGIIGNFIALCLFLSPTPTFVRIVKKKSVEEYSPIPYLATLINCLVWVLYGLPTVHPDSTLVITINGTGILIEIVFLTIFFVYCGRQKQRLIISAVIAAETAFIAILAVLVLTLQHTTEKRTMSVGIVCCVFNVMMYASPLSVMKMVIKTKSVEFMPFWLSVAGFLNAGVWTIYALMPFDPFMAIPNGIGCLFGLAQLILYGAYYKSTKRIMAERENQPGYVGLSSAIARTGSEKTANTNQEPNNV
inhibition of xylose transport by glucose (in words) [1]: do not have any xylose transport inhibition in the presence of both 25 mM and 100 mM glucose
mixed sugar utilization profile at high sugar [2]: co-consumption of glucose and xylose even at higher glucose concentrations
growth / transport capacity on glucose or xylose [3]: substantial growth on xylose and glucose; also recorded: both glucose and xylose transport capacity
growth / transport capacity on glucose or xylose ([3]; listed as SWEET7): capable of sustaining an efficient growth on glucose or xylose
Km [4]: 75 mM and 74.1 ± 13.0 mM
glucose and xylose mixed sugar fermentation phenotype [5]: simultaneous co-consumption of glucose and xylose with almost the same rates of sugar consumption; also recorded: true co-fermentation phenotype
glucose and xylose mixed sugar fermentation phenotype ([5]; listed as SWEET7): simultaneously utilize glucose and xylose
sole sugar fermentation performance [6]: enabled glucose and xylose fermentation, depleting all provided sugars

B2: LST1_205437: Lipomyces starkeyi LST1 transporter polypeptide, SEQ ID NO:4, GenBank ODQ75362.1 (protein)
chain: MGFLGFLNRSQASEPVEKESTATTPSEGRTPQRPLSPAVGVPLEQDFETQLSAKDAPLLAFILGGVASVGGFMFGYQTGQISGFLEMSDFKTRFAACNSQTGQCTFSAARQGTIVGLFSIGTLIGSLIAAPIADRIGRRLTISFWAFFFMIGTVLEISSSHVWVQFAMGRFVGGLGIGALSVVVPMYQSESTPRMIRGVIVSSYQLMVTLGIWLAYMINWGTESLQGSQSWRITNGMSFLWALVLGIAILGLPESPRYAYRVGREEEARKNMARLYKLSPNHPIINLEIQEIQEKLDAERVGGDHPWYEIFTGPRMLYRTILGMVLQAGQQLTGANYFFYYGTTVFSATGLSNSYVTQIILGSVNVGGTIAGLWLIENCGRRKALMGGAAWMFMCFMVFAFVGHFSLDHQNPEATPQAGAALVVFSCLFIIAFAMTWGPIVWAIVGELYPARYRATCMGLATSSNWLFNFLIGFFTTFITGDIDYLYGLVFAGCCFALFFIVYFFVIETKGRSLEEIDTMYVLHVNPINSAKWDSSQLMRDGDGLVNTDDLYLEAGGNRFAKDEHSAHEMIPSHDENAPGPSHTSHADIEKAESSGAESRDAL
modifications: Lipomyces starkeyi LST1_204537 transporter polypeptide
inhibition of xylose transport by glucose (in words) [1]: partial inhibition of xylose uptake by glucose
mixed sugar utilization profile at high sugar [2]: partial xylose and glucose co-consumption
growth / transport capacity on glucose or xylose [3]: substantial growth on xylose and glucose; also recorded: capable of sustaining an efficient growth on glucose or xylose
glucose and xylose mixed sugar fermentation phenotype [5]: co-consumption of glucose and xylose; also recorded: partial co-fermentation; also recorded: simultaneously utilize glucose and xylose
sole sugar fermentation performance [6]: enabled glucose and xylose fermentation, depleting all provided sugars
